Data set [1] can be described thus: Partition coefficient, n-octanol / 0.1 M phosphate buffer. In kind it is physicochemical. The conditions noted are these: shake-flask, 2.0 mL n-octanol / 2.0 mL 0.1 M phosphate buffer pH 7.4, room temperature, 20 uL radioactive sample, mixed twice 1 min, radioactivity counting; mean ± SD; read-out: Partition coefficient, log (n-octanol/0.1 M phosphate buffer). The method, then:
The partition coefficients of ^111In-labeled 3-arm and 4-arm DOTA-α-MSH were measured using 2.0 mL n-octanol as the organic phase and 2.0 mL 0.l M phosphate buffer as the aqueous phase (pH 7.4 for plasma). N-octanol and the buffer were pre-mixed twice using a mechanical mixer for 1 min at room temperature. Then, 20 µL radioactive sample were added and mixed twice using a mechanical mixer for 1 min at room temperature. The radioactivity of 200 uL of each phase was measured after centrifugation. Calculation of log (n-octanol/0.l M phosphate buffer) was performed.

The nature of data set [2]: Stability analysis in plasma, liver and kidney of mice, ex vivo TLC. Also noted: species or system mouse. The conditions noted are these: γ-counter, mean ± SD, n = 3 mice; for Fraction ratio of intact radiotracer, Plasma (%): B16-F1-bearing C57BL6 mice; for Fraction ratio of intact radiotracer, Plasma (%) / Fraction ratio of intact radiotracer, Liver (%): reverse-phase TLC; for Fraction ratio of intact radiotracer, Liver (%): liver homogenate. The method, then:
All animal studies were conducted following approval by the Animal Care Committee of Kanazawa University (AP-122339). Fasted B16-F1-bearing C57BL6 male mice (5 weeks old) were administered ^111In-labeled 3-arm or 4-arm DOTA-α-MSH (3.7 MBq/mouse) via the tail vein. At 10, 30, 60, 120, and 180 min after injection, mice (n = 3 per time point) were euthanized with isoflurane, and blood and liver were collected and analyzed with thin layer chromatography (TLC). Briefly, 300 uL blood in a heparinized tube was centrifuged at 18,000 ×g at 4°C for 5 min. A total of 30 uL perchloric acid was added to the supernatant, which was centrifuged again, after which the final supernatant was spotted onto the TLC plate as plasma. Krebs-Ringer phosphate buffer (pH 7.4) was added to the liver samples, followed by homogenization with an ultrasonic homogenizer (SONIFIER250, Branson, MO, USA). Then, ethanol was added to the homogenate to remove proteins, and the sample was centrifuged at 18,000 ×g at 4°C for 5 min. The final supernatant was spotted onto the reverse-phase TLC plate, and the TLC spots were developed using 50 mM EDTA (pH 4–5) solvents. After development and complete drying, the TLC plates were cut into 21 fractions, and the radioactivity associated with each fraction was quantified using a γ-ray counter. The fraction ratios of ^111In^3+, ^111In-labeled 3-arm or 4-arm DOTA-α-MSH, and all metabolites were calculated by dividing the radioactive counts for each fraction by the total radioactivity counts.

Assay in data set [3]: as above
Further details: species or system mouse. The conditions noted are these: γ-counter, mean ± SD, n = 3 mice.

Setting [4] is: 10 min after i.v. injection 3.7 MBq/mouse.
Setting [5] is: 30 min after i.v. injection 3.7 MBq/mouse.
The mark [6] stands for this setting: 60 min after i.v. injection 3.7 MBq/mouse.
Setting [7] is: 120 min after i.v. injection 3.7 MBq/mouse.
Where [8] appears, read: 180 min after i.v. injection 3.7 MBq/mouse.

This note sets out measurements from article PMC6430397, “The pharmacological properties of 3-arm or 4-arm DOTA constructs for conjugation to α-melanocyte-stimulating hormone analogues for melanoma imaging” (PLoS ONE, 2019).

On to `CSCC[C@H](NC(=O)[C@H](CO)NC(=O)[C@H](Cc1ccc(O)cc1)NC(=O)[C@H](CO)NC(C)=O)C(=O)N[C@@H](CCC(=O)O)C(=O)N[C@@H](Cc1c[nH]cn1)C(=O)N[C@@H](Cc1ccccc1)C(=O)N[C@@H](CCCNC(=N)N)C(=O)N[C@@H](Cc1c[nH]c2ccccc12)C(=O)NCC(=O)N[C@@H](CCCCNC(=S)Nc1ccc(C[C@H]2CN(CC(=O)O)CCN(CC(=O)O)CCN(CC(=O)O)CCN2CC(=O)O)cc1)C(=O)N1CCC[C@H]1C(=O)N[C@H](C(=O)O)C(C)C` [^111In-labeled 4-arm DOTA-α-MSH, metal not drawn], for which the logD in data set [1] is -0.13 ± 0.04. The “Fraction ratio of intact radiotracer, Plasma (%)” value is 96.0 ± 2.5% in data set [2] (setting [4]); 95.8 ± 2.6% in data set [2] (setting [5]); 92.1 ± 2.1% in data set [2] (setting [6]); 84.2 ± 2.2% in data set [2] (setting [7]); 80.8 ± 2.3% in data set [2] (setting [8]). Besides, the “Fraction ratio of intact radiotracer, Liver (%)” value in data set [2] (setting [4]) is 95.1 ± 2.9%; in data set [2] (setting [5]) it was 94.9 ± 2.1%; in data set [2] (setting [6]), 91.3 ± 3.2%; in data set [2] (setting [7]), 78.6 ± 4.9%; in data set [2] (setting [8]), 76.2 ± 4.1%. The “Fraction ratio of intact radiotracer, Kidney (%)” value turned out to be 95.8 ± 1.9% in data set [2] (30 min after i.v. injection 3.7 MBq/mouse, kidney, TLC); 96.1 ± 2.0% in data set [3] (setting [4]); 93.3 ± 3.5% in data set [3] (setting [6]); 84.5 ± 3.3% in data set [3] (setting [7]); 80.5 ± 2.8% in data set [3] (setting [8]).
